Laboratory results published in patent US20210079060A1.

Legend:
[1] = target: yeast-displayed wild-type CD19 (extracellular domain) (human) (UniProt P15391); assay: flow cytometry, yeast display, Aga2p-CD19, 22 °C pre-treat; mAb binding against CD19 per yeast
[2] = target: yeast-displayed wild-type CD19 (extracellular domain) (human) (UniProt P15391); assay: flow cytometry, yeast display, CD19-Aga2p, 22 °C pre-treat; mAb binding against CD19 per yeast
CD19-scFvHER2 (FIG. 15A) [3] = assay: flow cytometry, yeast display, right panel; FMC63 + GaM-A647 (FL4-A) against biotin-HER2 + strep-A488 (FL1-A); Q8 30.1 also printed
CD19-FnEGFR (FIG. 15A) [4] = assay: flow cytometry, yeast display, left panel; FMC63 + GaM-A647 (FL4-A) against biotin-EGFR + strep-A488 (FL1-A)
CD19-scFvHER2 (FIG. 15A) [5] = assay: flow cytometry, yeast display, right panel; FMC63 + GaM-A647 (FL4-A) against biotin-HER2 + strep-A488 (FL1-A)
CD19-FnEGFR (FIG. 15A) [6] = assay: flow cytometry, yeast display, left panel; FMC63 + GaM-A647 (FL4-A) against biotin-EGFR + strep-A488 (FL1-A); Q8 64.9 also printed

Chain of yeast-displayed wild-type CD19 (extracellular domain) (human) (P15391 20-291): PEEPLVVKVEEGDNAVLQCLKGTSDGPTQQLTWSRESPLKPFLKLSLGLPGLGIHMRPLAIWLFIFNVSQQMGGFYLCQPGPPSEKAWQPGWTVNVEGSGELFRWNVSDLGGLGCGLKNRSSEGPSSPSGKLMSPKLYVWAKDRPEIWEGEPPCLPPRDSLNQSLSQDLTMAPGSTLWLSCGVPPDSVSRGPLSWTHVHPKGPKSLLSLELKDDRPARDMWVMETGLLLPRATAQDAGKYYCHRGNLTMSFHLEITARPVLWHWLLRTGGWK

Row | Substance | percent of yeast in gate R7 (CD19-displaying, no mAb signal; taken as the lower dashed gate) [1] [%] | percent of yeast in gate R8 (CD19-displaying, no mAb signal; taken as the lower dashed gate) [2] [%] | Q5, percent of events positive for FMC63 and negative for biotin-target (CD19-scFvHER2 (FIG. 15A) [3]) | Q6, percent of events positive for FMC63 and biotin-target (CD19-FnEGFR (FIG. 15A) [4]) | Q6, percent of events positive for FMC63 and biotin-target (CD19-scFvHER2 (FIG. 15A) [5]) | Q5, percent of events positive for FMC63 and negative for biotin-target (CD19-FnEGFR (FIG. 15A) [6])
1 | 4G7 (antibody) | 37.2 | 51.6 | – | – | – | –
2 | FMC63 (antibody) | – | – | 31.8 | 0.034 | 35.1 | 35.1
